In the supplement of paper PMC9170038:

The sequences below were run on MS2 coat protein (assay: apparent KD of MS2 coat protein, switch OFF state (with FMN for OFF switches, without FMN for ON switches); designed switch direction (-1 OFF switch, 1 ON switch): -1; higher = weaker reporter binding). Settings: FMN input: 0 or 200 uM; Eterna round: R93 (includes R88 designs).
In short: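 Apparent KD was obtained for each design as the median of normalised binding-curve fits over its clusters. RNA switches transcribed on-chip from Illumina sequencing clusters were titrated with SNAP-549-labelled MS2 coat protein (twofold steps, 0.7 or 1.5 nM to 3 µM) in 100 mM Tris-HCl pH 7.5, 80 mM KCl, 4 mM MgCl2, without or with constant ligand.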
In the case of “AAAAGGAUAGGAUAUACAUGAGGAUCACCCAUGUGAAAAAAUAAAAAAAAAAAAAAAAGUAGAAGGGUCAAAAA [LROPPY Exclusion 3 - v05_deltaG=3.6]”, the “apparent KD of MS2 coat protein” value is reported as 53.7 nM.
“GUGUACAGAGGAUAUACAUGAGCAUGGAAACAUGCAAGAUCACAUGAGGAUCACCCAUGUAGAAGGCUGUACAC [Ex2: 733]” was tested, and the “apparent KD of MS2 coat protein” value was 30.8 nM.
With “CUCAUGUCAGGAUAUCAGUAGUAAAAAAAAAAAAUUACUACUGAGAAGGGACAUGAGGAUCACCCAUGUCCCAA [EX4 305: Super Stable 5]” the “apparent KD of MS2 coat protein” value was 36.3 nM.
With “AAGAAGGUAGGAUAUACAAAAUAAAAGAAAAGAAAGAAAGAACAUGAGGAUCACCCAUGUAGAAGGACCAAGAA [Khutawyre Wegaf]” the “apparent KD of MS2 coat protein” value was 17.7 nM.
“AAAAAGUGAGGAUAUAGCAAAGGUCACGAAAGUGACAAAGGCUAGAAGGCACAUGAGGAUCACCCAUGUCCAAA [Fiskers Exclusion 4 D2 63% 2]” was tested, and the “apparent KD of MS2 coat protein” value was 55.6 nM.
With “AGGGAGUGAGGAUAUGCGAAAGAAAAAGAAAAAAAAAAAAAGCAGAAGGUACAUGAGGAUCACCCAUGUAAAAA [milkweed 6]” the “apparent KD of MS2 coat protein” value was 29.1 nM.
For “AAUAGUGAAGGAUAUACAGGAGAAGUACGAUAAAAGAAAGAACAUGAGGAUCACCCAUGUAGAAGGUCAGAAGU [JR_Exc002_Sub1228]”, the “apparent KD of MS2 coat protein” value was 26.3 nM.
With “AAAAAUGGAGGAUAUACGAACAUGUCAAAAGACGUGAAGGGACAUGAGGAUCACCCAUGUAGAAGGCUAAAAAA [JL Stem Breaker 3]” the “apparent KD of MS2 coat protein” value was 40.3 nM.
“AAAAUGUGAGGAUAUCCGAAGGCGUCUGAUAGACGAGGCUAGGAGAAGGCACAUGAGGAUCACCCAUGUAAAAA [Banishment 11 - Jieux - Exclusion 4]” was tested, and the “apparent KD of MS2 coat protein” value was 137 nM.
“AAAGGUACAGGAUAUGCGUGGAAAAAGUGUAUUCAAAAAAAACAUGAGGAUCACCCAUGUAGAAGGGUACCAAA [MS2 Riboswitches On Chip Exclusion 2 wbt1]” was tested, and the “apparent KD of MS2 coat protein” value was 253 nM.
With “AACAAGUCAGGAUAUGCGAACAGAAAAUAAGCUACACAAAAGCAGAAGGGACAUGAGGAUCACCCAUGUAAAUA [JR_Exc004_Sub501]” the “apparent KD of MS2 coat protein” value was 29.8 nM.
For “AAGAAAGAAGGAUAUACAAGGAAGAAAGAAAAGAAAAGAAAACAUGAGGAUCACCCAUGUAGAAGGUCUUAGAA [EteRNA is fun!]”, the “apparent KD of MS2 coat protein” value was 13.8 nM.
For “GAAAAUUGAGGAUAUACGAACAUGUCAAAAGACGUGAAGGGACAUGAGGAUCACCCAUGUAGAAGGCGAAAAAG [Mat - Exclusion 2 - JL mod - D93]”, the “apparent KD of MS2 coat protein” value was 12.3 nM.
For “CUCUUGUGAGGAUAUAGAAGAAAAGAAAAGAAAGAAAAGAACUAGAAGGCACAUGAGGAUCACCCAUGUAAGAA [EteRNA is fun!]”, the “apparent KD of MS2 coat protein” value was 67.7 nM.
With “AAAAAACAUGAGGAUCACCCAUGUGAGGAUAUCCUGGUUGAAAAAAAAAAAACAACCAGGAGAAGGCACAAAAA [EXCL-I]” the “apparent KD of MS2 coat protein” value was 57.8 nM.
“AAAAAGUCAGGAUAUUCGGAAGGGAAAGCGCAAACCCAACCGAAGAAGGGACAUGAGGAUCACCCAUGUGGAAA [Ecls4-III 65% - Late G segment 1]” was tested, and the “apparent KD of MS2 coat protein” value was 88.9 nM.
For “AAAAAACAUGAGGAUCACCCAUGUAAGGAUAUGCUGAAAAACACUGGAAAACAGUGCAGCAGAAGGUACAAAAA [66%, Wbt, 34]”, the “apparent KD of MS2 coat protein” value was 36.1 nM.
“GAUAGUGAAGGAUAUACUGGAGGAGUGCGAUAGAAGCAAGAACAUGAGGAUCACCCAUGUAGAAGGUCAGAAGU [JR_Exc002_Sub1224]” was tested, and the “apparent KD of MS2 coat protein” value was 23.2 nM.
For “AAAAAGGUAGGAUAUACAUGAGGAUCACCCAUGUGAAAGAAAAAUAAGAAAAGAAAGAGUAGAAGGACCAAAAA [JL JSci Mod]”, the “apparent KD of MS2 coat protein” value was 30.6 nM.
“AGCUAGCGAGGAUAUGCGAACAUGUCAAAAGACGUGAAGGGACAUGAGGAUCACCCAUGUAGAAGGCGCUAGCA [JL 74% mod 4]” was tested, and the “apparent KD of MS2 coat protein” value was 29.6 nM.
In the case of “AGCAGUACAGGAUAUACAUGAGGAUCACCCAUGUGAAAAUAAAGUGGCGUACCACAAAGUAGAAGGGUACUGCA [Mat - Exclusion 3 - JL mod - D31]”, the “apparent KD of MS2 coat protein” value is reported as 104 nM.
In the case of “AUAGGCCUAGGAUAUACAUGAGGAUCACCCAUGUAAACCGAUAGAUCACGGUAAACGAGUAGAAGGAGGAAUAA [JR_Exc003_Sub208]”, the “apparent KD of MS2 coat protein” value is reported as 30.3 nM.
In the case of “AAGGGACAUGAGGAUCACCCAUGUGAGGAUAUGAUGCGAAUAAAGAAAGAAUAAAGCAUCAGAAGGCACACCAA [Mat - Exclusion 1 - Eli mod - D66]”, the “apparent KD of MS2 coat protein” value is reported as 109 nM.
In the case of “AAAAAACAUGAGGAUCACCCAUGUAAGGAUAUGCUCGAAAGUGCGAAAGCACAAACGAGCAGAAGGUACAAAAA [66%, Wbt, 45]”, the “apparent KD of MS2 coat protein” value is reported as 51.9 nM.
In the case of “AAAAAACAUGAGGAUCACCCAUGUCAGGAUAUCGAAAAAUAAAUAAAAAUAAAAUAAACGAGAAGGGACAAAAA [May 11]”, the “apparent KD of MS2 coat protein” value is reported as 44.7 nM.
“AAGAAGGUAGGAUAUACAAAAUAAAAGAAAAGAAAGAAAGAACAUGAGGAUCACCCAUGUAGAAGGGCCAAGAA [Khendjer]” was tested, and the “apparent KD of MS2 coat protein” value was 35.3 nM.
In the case of “GGGUAACAUGAGGAUCACCCAUGUGAGGAUAUCCUAGGGAUGGAAGCCAGGCCAAAAAGGAGAAGGUACUAAAG [Janelle Amethyst 18 Mod 17 - Jieux - Exclusion 1]”, the “apparent KD of MS2 coat protein” value is reported as 72.4 nM.
“AGCUAGUCAGGAUAUACAUAAAAAAAAAAAAAAAGUGAUAAACAUGAGGAUCACCCAUGUAGAAGGGACUAGCA [Similarities v.4.2 (34 mutated to A)]” was tested, and the “apparent KD of MS2 coat protein” value was 48.3 nM.
For “AAGAAACAUGAGGAUCACCCAUGUGAGGAUAUGGAAAAGAAAAGAAAAGAAAGAAGAAUCAGAAGGCACAAAGG [Meryhathor]”, the “apparent KD of MS2 coat protein” value was 26.9 nM.
“AGUGAGUGAGGAUAUCCCUGAAGAAUAAAAGAAAUAACGAGGGAGAAGGCACAUGAGGAUCACCCAUGUACACA [May 64]” was tested, and the “apparent KD of MS2 coat protein” value was 24.8 nM.
In the case of “AAGUUAUUAGGAUAUACUUGUGCGAUCCAUACGUUGAUAUUACAUGAGGAUCACCCAUGUAGAAGGAAUAAAAA [JR_Exc002_Sub414]”, the “apparent KD of MS2 coat protein” value is reported as 45.2 nM.
In the case of “GGUUGGCGAGGAUAUACAUGAGGAUCACCCAUGUGAGAGAAAAAAGUGAGGAGGAGAAGUAGAAGGCGCUGACG [salish99-ex3-17]”, the “apparent KD of MS2 coat protein” value is reported as 3.7 nM.
“AGGAAACAUGAGGAUCACCCAUGUUAGGAUAUGAACGAAAUAAAAUAAAAAUAAAAGUUCAGAAGGAACAAAAA [Mat - Exclusion 1 - Eli mod - D19]” was tested, and the “apparent KD of MS2 coat protein” value was 41.3 nM.
“AAAAAGUCAGGAUAUGCGAAGGCGUCUGAUAGACGAGGCUAGCAGAAGGGACAUGAGGAUCACCCAUGUGAAGA [Mat - Exclusion 4 - Eli mod - D84]” was tested, and the “apparent KD of MS2 coat protein” value was 97.5 nM.
